Laboratory results published in patent US12226490B2, “Anti-ROR1 antibody conjugates, compositions comprising anti ROR1 antibody conjugates, and methods of making and using anti-ROR1 antibody conjugates preliminary class” (Sutro Biopharma, Inc., priority 2022, dated 2025).

B1: SRP2196-A09 (antibody, V domains shown)
VH: EVQLVESGGGLVQPGGSLRLSCAASGFNITGYYIHWVRQAPGKGLEWVGQISPNSGATHYADSVKGRFTISADTSKNTAYLQMNSLRAEDTAVYYCARDSRRYIRSWDYWGQGTLVTVSS
VL: QAVVTQESALTTSPGETVTLTCRSSTGAVTTSNYANWVQEKPDHLFTGLIGGTNKRAPGVPARFSGSLIGDKAALTITGAQTEDEAIYFCALWYSNLWVFGGGTKLTVL
B2: SRP2196-B06 (antibody, V domains shown)
VH: EVQLVESGGGLVQPGGSLRLSCAASGFNITGYYIHWVRQAPGKGLEWVGQISPNSGSTYSADSVKGRFTISADTSKNTAYLQMNSLRAEDTAVYYCARDSRRYVLSWDYWGQGTLVTVSS
VL: QAVVTQESALTTSPGETVTLTCRSSTGAVTTSNYANWVQEKPDHLFTGLIGGTNKRAPGVPARFSGSLIGDKAALTITGAQTEDEAIYFCALWYSNLWVFGGGTKLTVL
B3: SRP2196-B10 (antibody, V domains shown)
VH: EVQLVESGGGLVQPGGSLRLSCAASGFNITGYYIHWVRQAPGKGLEWVGSITPLSGATSKADSVKGRFTISADTSKNTAYLQMNSLRAEDTAVYYCARDSRRYIRSWDYWGQGTLVTVSS
VL: QAVVTQESALTTSPGETVTLTCRSSTGAVTTSNYANWVQEKPDHLFTGLIGGTNKRAPGVPARFSGSLIGDKAALTITGAQTEDEAIYFCALWYSNLWVFGGGTKLTVL
B4: SRP2196-B02 (antibody, V domains shown)
VH: EVQLVESGGGLVQPGGSLRLSCAASGFNITQYYIHWVRQAPGKGLEWVGYISPNSGQTYDADSVKGRFTISADTSKNTAYLQMNSLRAEDTAVYYCARDSRRYVRSWDYWGQGTLVTVSS
VL: QAVVTQESALTTSPGETVTLTCRSSTGAVTTSNYANWVQEKPDHLFTGLIGGTNKRAPGVPARFSGSLIGDKAALTITGAQTEDEAIYFCALWYSNLWVFGGGTKLTVL
B5: SRP2196-B09 (antibody, V domains shown)
VH: EVQLVESGGGLVQPEGSLRLSCAASGFNITEYYIHWVRQAPGKGLEWVGYISPNSGSTYYADSVKGRFTISADTSKNTAYLQMNSLRAEDTAVYYCARDSRRYVRSWDYWGQGTLVTVSS
VL: QAVVTQESALTTSPGETVTLTCRSSTGAVTTSNYANWVQEKPDHLFTGLIGGTNKRAPGVPARFSGSLIGDKAALTITGAQTEDEAIYFCALWYSNLWVFGGGTKLTVL
B6: SRP2196-B01 (antibody, V domains shown)
VH: EVQLVESGGGLVQPGGSLRLSCAASGFNITGYYIHWVRQAPGKGLEWVGQISPNSGYTYYADSVKGRFTISADTSKNTTYLQMNSLRAEDTAVYYCARDSRRYVRSWDYWGQGTLVTVSS
VL: QAVVTQESALTTSPGETVTLTCRSSTGAVTTSNYANWVQEKPDHLFTGLIGGTNKRAPGVPARFSGSLIGDKAALTITGAQTEDEAIYFCALWYSNLWVFGGGTKLTVL
B7: SRP2196-A10 (antibody, V domains shown)
VH: EVQLVESGGGLVQPGGSLRLSCAASGFNITGYYIHWVRQAPGKGLEWVGYISPNSGATHYADSVKGRFTISADISKNTAYLQMNSLRAEDTAVHYCARDSRRYVRSWDYWGQGTLVTVSS
VL: QAVVTQESALTTSPGETVTLTCRSSTGAVTTSNYANWVQEKPDHLFTGLIGGTNKRAPGVPARFSGSLIGDKAALTITGAQTEDEAIYFCALWYSNLWVFGGGTKLTVL
B8: SRP2196-B03 (antibody, V domains shown)
VH: EVQLVESGGGLAQPGGSLRLSCAASGFNITGYYIHWVRQAPGKGLEWVGYISPNSGATHYADSVKGRFTISADTSKNTAYLQMNSLRAEDTAVYYCARDSRRYVRPFDYWGQGTLVTVSS
VL: QAVVTQESALTTSPGETVTLTCRSSTGAVTTSNYANWVQEKPDHLFTGLIGGTNKRAPGVPARFSGSLIGDKAALTITGAQTEDEAIYFCALWYSNLWVFGGGTKLTVL
B9: SRP2196-B04 (antibody, V domains shown)
VH: EVQLVESGGGLVQPGGSLRLSCAASGFNITEYYIHWVRQAPGKGLEWVGYISPNSGATYQADSVKGRFTISADTSKNTAYLQMNSLRAEDTAVYYCARDSRRYVRGWDYWGQGTLVTVSS
VL: QAVVTQESALTTSPGETVTLTCRSSTGAVTTSNYANWVQEKPDHLFTGLIGGTNKRAPGVPARFSGSLIGDKAALTITGAQTEDEAIYFCALWYSNLWVFGGGTKLTVL
B10: SRP2196-A11 (antibody, V domains shown)
VH: EVQLVESGGGLVQPGGSLRLSCAASGFNITGYYIHWVRQAPGKGLEWVGQISPNSGTTYDADSVKGRFTISADTSKNTAYLQMNSLRAEDTAVYYCARDSRRYVRGWDYWGQGTLVTVSS
VL: QAVVTQESALTTSPGETVTLTCRSSTGAVTTSNYANWVQEKPDHLFTGLIGGTNKRAPGVPARFSGSLIGDKAALTITGAQTEDEAIYFCALWYSNLWVFGGGTKLTVL
B11: SRP2196-B08 (antibody, V domains shown)
VH: EVQLVESGGGLVQPGGSLRLSCAASGFNITGYYIHWVRQAPGKGLEWVGQISPNSGYTYLADSVKGRFTISADTSKNTAYLQMNSLRAEDTAVYYCARDSRRYVRGWDYWGQGTLVTVSS
VL: QAVVTQESALTTSPGETVTLTCRSSTGAVTTSNYANWVQEKPDHLFTGLIGGTNKRAPGVPARFSGSLIGDKAALTITGAQTEDEAIYFCALWYSNLWVFGGGTKLTVL

How the values were obtained:
[1] = Differential scanning fluorimetry (protein thermal shift; TM1 Fc, TM2 Fab); format: physicochemical; settings: melting temperature of the Fab domain; Table 11
Procedure: A protein thermal shift assay was carried out by mixing the protein to be assayed with an environmentally sensitive dye (SYPRO Orange, Life Technologies Cat #S-6650) in a phosphate buffered solution (PBS), and monitoring the fluorescence of the mixture in real time as it underwent controlled thermal denaturation. Protein solutions between 0.2-2 mg/mL were mixed at a 1-1 volumetric ratio with a 1-500 PBS-diluted solution of SYPRO Orange (SYPRO Orange stock dye is 5000× in DMSO). 10 μL aliquots of the protein-dye mixture were dispensed in quadruplicate in a 384-well microplate (Bio-Rad Cat #MSP-3852), and the plate was sealed with an optically clear sealing film (Bio-Rad Cat #MSB-1001) and placed in a 384-well plate real-time thermocycler (Bio-Rad CFX384 Real Time System). The protein-dye mixture was heated from 25° C. to 95° C., at increments of 0.1° C. per cycle (˜1.5° C. per minute), allowing 3 seconds of equilibration at each temperature before taking a fluorescence measurement. At the end of the experiment, the transition melting temperatures (TM1 and TM2) were determined using the Bio-Rad CFX manager software. TM1 represents the melting temperature of the Fc domain. TM2 represents the melting temperature of the Fab domain.
For the thermal stability of an antibody, the first melting peak (Tm1) coincides with the unfolding of the CH2 domain (FC stability), while the second melting peak (Tm2) occurs upon unfolding of the Fab domain.

human ROR1-Fz = target: T1, human ROR1-Fz (Homo sapiens, UniProt Q01973); test: Biacore off-rate and kinetic analysis, ROR1 frizzled domain; format: binding; settings: Table 11 (SP34 light chain)
T1 construct: Frizzled (Fz, residues 165-305); HIS6 (C); purchased Acro Biosystems; host or cells: HEK293
Procedure: Anti-Fc polyclonal antibodies were immobilized onto a CM5 chip (GE Life Sciences) using amine coupling chemistry (from Amine Coupling Kit, GE Life Sciences). The immobilization steps were carried out at a flow rate of 25 μL/min in 1×HBS-EP+ buffer (GE Life Sciences; 10× Stock diluted before use). The sensor surfaces were activated for 7 min with a mixture of NHS (0.05 M) and EDC (0.2 M). The Anti-Fc antibodies were injected over all 4 flow cells at a concentration of 25 ug/ml in 10 mM sodium acetate, pH 4.5, for 7 min. Ethanolamine (1 M, pH 8.5) was injected for 7 min to block any remaining activated groups. An average of 12,000 response units (RU) of capture antibody was immobilized on each flow cell.
Off-rate and kinetic binding experiments were performed at 25° C. using 1×HBS-EP+ buffer. Test and control antibodies were injected over the anti-Fc surface at concentrations of 5-10 μg/mL for 12 seconds at a flow rate of 10 μL/min on flow cells 2, 3 and 4, followed by a buffer wash for 30 seconds at the same flow rate. Kinetic characterization of antibody samples was carried out with a range of antigen concentrations from 1-100 nM and 1 injection of 0 nM antigen (for example, 100, 50, 25, 6.25, 1.56 and 0 nM). After capturing ligand (antibody) on the anti-Fc surface, the analyte (hROR1, Fz or Kr domains, Acro Biosystems, Delaware) was bound for 180 seconds, followed by a 600 second dissociation phase at a flow rate of 50 μL/min. Between each ligand capture and analyte binding cycle, regeneration was carried out using 2 injections of 10 mM Glycine pH 2.0 for 30 seconds at 30 μL/min, followed by a 30 second buffer wash step.
The data was fit with the Biacore T200 Evaluation software, using a 1-1 Langmuir binding model. KD (affinity, nM) was determined as a ratio of the kinetic rate constants calculated from the fits of the association and dissociation phases.
For anti-CD3-LC-containing IgGs that had detectable ROR1-binding in ELISA (1944-A07 and 1987-C05 variants), those antibodies were further tested for binding by surface plasmon resonance (SPR). Binding kinetics were assessed to the ROR1-frizzled domain (hROR1-Fz) or the ROR1-extracellular domain (hROR1) for 1944-A07 and 1987-C05 variants, respectively. Briefly, anti-ROR1 antibodies were captured via anti-human Fc polyclonal antibodies immobilized to a CM5 chip, and ROR1 recombinant proteins were flowed across the surface to assess binding kinetics. hROR1 or hROR1-Fz domain (Acro Biosystems, Delaware) binding was tested at 100, 50, 25, 6.25, 1.5625 nM. The data was fit with the Biacore™ T200 Evaluation software, using a 1-1 Langmuir binding model. KD (affinity, nM) was determined as a ratio of the kinetic rate constants calculated from the fits of the association and dissociation phases.

T1 sequence (Q01973 165-305): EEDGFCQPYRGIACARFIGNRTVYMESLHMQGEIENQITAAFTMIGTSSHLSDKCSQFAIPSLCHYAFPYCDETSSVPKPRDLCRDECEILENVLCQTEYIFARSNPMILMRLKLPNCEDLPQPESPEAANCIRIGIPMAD

| Molecule | TM2 [1] | Biacore human ROR1-Fz ka (human ROR1-Fz) | Biacore human ROR1-Fz kd (human ROR1-Fz) |
| --- | --- | --- | --- |
| B1 | 75 °C | 150000 M⁻¹ s⁻¹ | 0.000568 s⁻¹ |
| B2 | 70 °C | 142000 M⁻¹ s⁻¹ | 0.000423 s⁻¹ |
| B3 | 70 °C | 128000 M⁻¹ s⁻¹ | 0.000334 s⁻¹ |
| B4 | 69 °C | 163000 M⁻¹ s⁻¹ | 0.000227 s⁻¹ |
| B5 | 72 °C | 130000 M⁻¹ s⁻¹ | 0.000427 s⁻¹ |
| B6 | 75 °C | 131000 M⁻¹ s⁻¹ | 0.000401 s⁻¹ |
| B7 | 68 °C | 172000 M⁻¹ s⁻¹ | 0.000479 s⁻¹ |
| B8 | 71 °C | 124000 M⁻¹ s⁻¹ | 0.000945 s⁻¹ |
| B9 | 72 °C | 127000 M⁻¹ s⁻¹ | 0.000352 s⁻¹ |
| B10 | 73 °C | 191000 M⁻¹ s⁻¹ | 0.000792 s⁻¹ |
| B11 | 75 °C | 156000 M⁻¹ s⁻¹ | 0.000488 s⁻¹ |
